Experiment [1] deals with phenol soluble modulin-delta (Staphylococcus epidermidis). Nature of the experiment: cell-based or functional assay.
The target of experiment [2] is delta-haemolysin (Staphylococcus epidermidis). Nature of the experiment: tryptophan fluorescence, urea dissociation of peptide complexes, 5 µM peptide.
The target is the same in experiment [3]. Nature of the experiment: tryptophan fluorescence, urea dissociation of peptide complexes, 25 µM peptide.

The results in this text go back to patent publication US20100166708A1, “ANTIMICROBIAL AND ANTI-INFLAMMATORY THERAPIES AND COMPOSITIONS” (THE REGENTS OF THE UNIVERSITY OF CALIFORNIA, priority 2007, published 2010).

For the substance delta-haemolysin (peptide), the MIC of delta-haemolysin against GAS in the presence of 2 µM PSMdelta in experiment [1] is 4 µM. Besides, the figures for the deltaG^1(H2O) in experiment [2] and in experiment [3] were 1.43 kcal/mol and 1.57 kcal/mol, respectively.
